The data set concerns the molecule itself. The experiment in a line: dynamic light scattering; 20 µM Irga6 with 10 mM GTP at 37°C in 50 mM Tris/5 mM MgCl2/2 mM DTT, in the presence or absence of 40 µM (His6)-MBP-tagged ROP5-CIII or (His6)-MBP; mean hydrodynamic radius over 35 minutes.

B1: Recombinant Irga6 (residues 1-413) (natural protein)
chain: MGQLFSSPKSDENNDLPSSFTGYFKKFNTGRKIISQEILNLIELRMRKGNIQLTNSAISDALKEIDSSVLNVAVTGETGSGKSSFINTLRGIGNEEEGAAKTGVVEVTMERHPYKHPNIPNVVFWDLPGIGSTNFPPNTYLEKMKFYEYDFFIIISATRFKKNDIDIAKAISMMKKEFYFVRTKVDSDITNEADGKPQTFDKEKVLQDIRLNCVNTFRENGIAEPPIFLLSNKNVCHYDFPVLMDKLISDLPIYKRHNFMVSLPNITDSVIEKKRQFLKQRIWLEGFAADLVNIIPSLTFLLDSDLETLKKSMKFYRTVFGVDETSLQRLARDWEIEVDQVEAMIKSPAVFKPTDEETIQERLSRYIQEFCLANGYLLPKNSFLKEIFYLKYYFLDMVTEDAKTLLKEICLRN
notes: immunity-related GTPase Irga6, mouse, residues 1-413; a TEV cleavage site stands between the tags and the protein; source: recombinant (Lim et al., submitted)
Consider B1, for which the binding result was “binds”.

(Values after paper PMC3386190, “The Rhoptry Proteins ROP18 and ROP5 Mediate Toxoplasma gondii Evasion of the Murine, But Not the Human, Interferon-Gamma Response” (PLoS Pathogens, 2012).)
